Experiment: soluble on expression in E. coli; label from the status in PepcDB or PDB records

Sequence: MSKPLIFAHRGVKGTHPENTMIAFQEAERIGAHGIELDVHLSKDGELVVIHDETVDRTTNGVGLVSEKTVEELQLLDAGSYKDPSFHEAKIPTLREVFIWLSTTNLQLNIELKTDVIHYPNIEEKAVALVREYHLSNQIVFSSFNHDSVSLLAEIAPEIPRAILYDTPLTDPISEAKHREASGLHPNFQLLTKEFVQLAQEQGYVFRPYTINEYKDLQTMIDYGVDVIITDWPARAFELLS
- soluble on expression in E. coli: not soluble

Sequence: MGSDKIHHHHHHMRLSELKDAGRSPTLPLSITLVDAAGSADLQLLTLLRVLPGQRYVGAGVWRGTPVLAKLLVGGNAARHFQRELQGVKLLAEQGLTTPTLLADGLKEGEGGWLLFEFLDGAQSLADAWAAVENLPVLADEQHLVLGEALTAVAHMHAQGLWQEDLHLDNLLRHAGKLYLIDGAGIRAETPGQQLSRPRVLENLGVFFAQLPKRLEPFIEELLVHYLLANAEHALPLEALQKQVDKVRNWRQKDYLDKAGRECSLFSVQRTLSGLQAIRRSEVEAMQPVLEQADALIDKGHLYKTGGAASVARIEVNGRQLVIKRYNIKNTAHWFKRFWRPSRAWHSWIEGHRLEFLDIATPRPLAVLEQRVLGLRSRAYLVTEYVDGPDLTACFAPHVESGDAPEEQVDALVHVMQQLIRERISHGDFKGHNLFWHNGQWSLIDLDAMCQHATQLSFAPAYARDRARLLRNWPTGSALHQRLDRLLPKLVD
- soluble on expression in E. coli: not soluble

Sequence: MGQWANLKAKVIQLWENTHESISQVGLLGDETGIIKFTIWKNAELPLLEQGESYLLRSVVVGEYNDRFQVQVNKNSSIEKLSEPIEVGLEHHHHHH
- soluble on expression in E. coli: not soluble

Sequence: MAAEGVRVEGDWSRLVETIRNLNLSKSELRMLNAQIAQIVAEGSKERFETEKSPEGERWEPLSPATLEARARRRTRRKDGTSGYRTKRGKLSKRAERIIASGRPLKDTGRLMRSIATKATAEAAVIGTNLVQAAIQQLGGKAGRGKKVEIPARPYLGVSSSEEADIMELINEFIRERIQ
- soluble on expression in E. coli: not soluble

Sequence: MGEIADSLAGLTISVVSPDNQLAATVRRRREVTVHFRPGSYERYDARTLETQLSQLFTLVMSGYRQGYMSVMEAHDMTVMADASDVDTEAGRIVRRRRDETVALGESAQGMVRAKTRGLSEWRFKIADGALSRLSEEQFTAEIHGAFMNVMADWSRRVRRIHWEVFSPDRVPAAGR
- soluble on expression in E. coli: not soluble

Sequence: MAKRKGKGTRSESNRNLEELRRKAVEIVKRLEKVYLNPRLELEYENAFQLLVMAILAAQESDKVVNKVSKEFFKKYKTPQDIARANLEELEEDLKHINFYRRKAKLIKECCEKLIELYKGEVPKSVGELVKLPGVGRKTANMVIGGAYNLPAIIVDRHVHRVVERISLSKQKNPDKMEMELSEIVPQELWTKFSLLLLNHGKTICKARNPECEKCPILDLCEYGQKNLKGRK
- soluble on expression in E. coli: soluble

Sequence: MDELNPSPPVSEDPEHWYCTNMVGVPVGLIGSTAFNRCLRRITIHGTRETHPGLFRLLAACEYPATASEVFEHYMELEFGLAPGAHEPTQARYPTSYLDLLRGWGVESDCPKAAVLKGWVESRFGLVPTFHKQRLGLFPSSAWATYLQEKTDVRFHNNCIFQQFDLLYEYCQWSIRRFKTPGPRFVRLWRGTNDVEQQLVEGDARQRLCTVRLNNLVSFSDSKERAEEFGDWVLETEVPTVKLLFFPGLLQRQVLGYEGEFLVIGGNYKVRAYHGWFAAALEHHHHHH
- soluble on expression in E. coli: not soluble

Sequence: MKAARQQAIVDLLINHKSLTTEALATRLNVSKETIRRDLSELQTQGKVLRNHGRAKYIHRENQDSGDPFHIRLKSHYAHKADIAREALAWIEEGMTIALDASSTCWYLARQLPDIPIQVFTNSHPICQELGKRERIALISSGGQLERKYGCYVNPSLISQLKSLDIDLFIFSCEGIDGGGDLWDSNAINADFKSILLRRASQSLLLIDKSKFNRSGEARIGHLDDVTHIVSDAPQSLEHHHHHH
- soluble on expression in E. coli: not soluble

Sequence: MSLTLIYGHRGAKGEAPENTLASFQRCLEHGVNRCELDLHLSRDGELMVIHDPTLKRTTGRRGKVAEHDAATLATYDARKGGPGWVRPTPIPRLEELFEKCPFEHWQLEVKSASRERAARTVTRIRELTERFGNRDKVTVTSGSRTVLKALNELTPELSRGLVAEYAWLDPLKVAQHYGCALLALNWTLCTPERLLKAQRQGLHVSVWTVNEPALMRRLADFGVDSLITDFPGLASATLGNEGHHHHHH
- soluble on expression in E. coli: not soluble

Sequence: QLTPTFYRETCPNLFPIVFGVIFDASFTDPRIGASLMRLHFHDCFVQGCDGSVLLNNTDTIESEQDALPNINSIRGLDVVNDIKTAVENSCPDTVSCADILAIAAEIASVLGGGPGWPVPLGRRDSLTANRTLANQNLPAPFFNLTQLKASFAVQGLNTLDLVTLSGGHTFGRARCSTFINRLYNFSNTGNPDPTLNTTYLEVLRARCPQNATGDNLTNLDLSTPDQFDNRYYSNLLQLNGLLQSDQELFSTPGADTIPIVNSFSSNQNTFFSNFRVSMIKMGNIGVLTGDEGEIRLQCNFVNG
- soluble on expression in E. coli: soluble

Sequence: EVQLQQSGPELVKPGTSVKMSCKASGYTFTDYYMKWVKHSHGKSLEWIGDINPSNGGTLYNQKFKGKATLTVDKSSSTASMQLSRLTSEDSAVYYCSRGDGIHGGFAYWGQGTTVTVSSAKTTAPSVYPLAPVCGDTTGSSVTLGCLVKGYFPEPVTLTWNSGSLSSGVHTFPAVLQSDLYTLSSSVTVTSSTWPSQSITCNVAHPASSTKVDKKIVPQV
- soluble on expression in E. coli: soluble

Sequence: MAHHHHHHMPVKRSNKVHKFHEGTGDDNMPVVSMFVVKDGDEPFTRIDVELFVNKVPKACDLFLQTCAFPTVGDKRNAKRGSYKGCRFVRLTKEALQVADGSGPRAVPLSELEAEIGRVNHGVGIASLCRSSTSFDESFFFCLTDNRLELDSLDKRHVAFGRVTGGLDALMGLRDALVPYVQEGCVIVGSPYAVSEVVPKAKQ
- soluble on expression in E. coli: soluble

Sequence: MGHHHHHHSHMDQEMRVKRLESEKQELQEQLDLQHKKCQEANQKIQELQASQEARADHEQQIKDLEQKLSLQEQDAAIVKNMKSELVRLPRLERELKQLREESAHLREMRETNGLLQEELEGLQRKLGRQEKMQETLVGLELENERLLAKLQSWERLDQTMGLSIRTPEDLSRFVVELQQRELALKDKNSAVTSSARGLEKARQQLQEELRQVSGQLLEERKKRETHEALARRLQKRVLLLTKERDGMRAILGSYDSELTPAEYSPQLTRRMREAEDMVQKVHSHSAEMEAQLSQALEELGGQKQRADMLEMELKMLKSQS
- soluble on expression in E. coli: soluble

Sequence: MAHHHHHHMVHKKQAWAKRVKKERFKKKFLTRMQATRLLQMESVQFRRLCILKGIYPRALNRSKQKQSGNEKQYYLAREIKWLVRDQIAEKMMAYRAWEKKVKRAEAMGRSEDLKVLQTSRVKPRHSLVATIKERYPYFIDAIRDVDDAMSMIHLYAFLSPEIKSDTTIEIHHSLTSGLSERAKEVCERWDRYVARARVLTKGFISIKGYYYEAIVKGERVRWLCPHEYAHRFPPGIQQYVMLSFLEFYLEMMKFVLFKLESDLARDEADRLAAEDEEGVTRANAEDFANGAALAVLDVGANQAQAKAVKEAESKRSLMEEELHKVRELFRGLTFFISREVPAKHFALVINACGGRVATDYVPSNITHVVVDRPALPPGMKKHDQLEYVQPQYIFDCLNARLVLPVTGYRIGEELPPHVSPFSVSITNSAEDNAAVVQVKKDHPRIVGYVPARVHEIRKLINPSYSAVDPEGKVAHLEDEYSDEESHVAVPEMDMEDDVSLSGDELAEARRKPAWQEEEVTEEVQRPKLSAFKVKKQREMNLMNAPTNEVVARRRQALRKAQEKSRQTETSEARLQRKMSEVKRQEAATRKMQLQVARKKAARFYKMVSGVVQGTAKKVATLEAKAKHIAEGKLRKTEDGKGLVNKRLEARRQRAEAKGKKLKERKAGNPYKKLPKWVQ
- soluble on expression in E. coli: not soluble

Sequence: MGSDKIHHHHHHMKVVFLICNPAAGGGRAGKIWNRVEDLLKKHGIDHKFAFTERPGHAMEISKKAFKEGYRRIAAFGGDGTVNEMVNGIFLNGYDLREVVFGWIPFGSGKDWARTIGVPLEIEEAIKMLKDGKEFVQDLGVGEYEKASGEIEKRAFVNVAGLFFDGFVTYRTNLLKRKNRVSYFSRIFSSIIEYDPPTARIQIDEKVWEKRVFSMNVGICKYNGGGMNQLPHAVPDDGLLAVTVINDIGKLRILANLHRVFNGKLLEHPGVEGYQAKKVVVEFQRDEPVEFDGESFWAKKIFFSIIPGVIRVLVKK
- soluble on expression in E. coli: not soluble
